Assay [1] addresses T1, MegaRAP1 d3 (human, UniProt P30533 235-353).
T1 construct: range 201-319 (mature RAP numbering); d3 of the variant selected on LRP2 CR89; also called RAPv2A d3; RAP v2A; not shown: N-terminal hexahistidine and S-peptide tags of pET30(+)a
T1 sequence (looked up): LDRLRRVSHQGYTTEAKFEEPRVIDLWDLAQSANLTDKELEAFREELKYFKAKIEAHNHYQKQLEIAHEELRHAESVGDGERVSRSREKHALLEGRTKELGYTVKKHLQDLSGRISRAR
Nature of the assay: solid-phase assay, coated CR protein. The protocol: Wells were washed with TBSTC and bound ligands detected with polyclonal anti-RAP (BP41/42, 1:1,000, BioMarin). Excess primary antibody was removed and wells washed before incubation with the secondary antibody, HRP-conjugated goat anti rabbit IgG (Bio-Rad). After washing, TMB substrate solutions (Bio-Rad) were added to detect HRP. Color development was stopped with 1N HCl. Absorption at 450 nm was measured with a microplate spectrophotometer (Molecular Devices). Data were plotted and Kd values derived by non-linear regression with the assumption of single-site binding (GraphPad Prism).
One premise of this work was that amino acids at A, C, A′ and C′ within the calcium-binding loops of a CR pair were key determinants of binding affinity for RAP and would be similarly important for binding of RAP variants. To test this idea, mutant LRP2 CR89 were prepared in which the native, non-canonical residues at these positions were sequentially substituted with the non-native, canonical residues. As defined above, the A, C, A′, C′ string for LRP2 CR89 is YVWR. Mutants included LRP2 CR89Y1042W (WVWR), LRP2 CR89V1047D (YDWR), LRP2 CR89R1088D (YVWD), LRP2 CR89V1047D R1088D (YDWD), LRP2 CR89 Y1042W V1047D R1088D (WDWD), LRP2 CR89Y1042W V1047D (WDWR), LRP2 CR89Y1042W R1088D (WVWD). Binding to both RAP d3 and MegaRAP1 d3 were measured for each LRP2 CR89 mutant by solid-phase assay. […] The A′ position in LRP2 CR89 is a tryptophan, the canonical residue for wild-type RAP d3 binding, and was not mutated in our studies. […] We did see a small increase in binding of RAP d3 to the WVWD and WDWD combinations at A, C, A′ and C′.

The target in assay [2] is T2, RAP d3 K270E (human, UniProt P30533 235-353).
T2 construct: range 201-319 (mature RAP numbering); Forward mutant of m1; same construct; also called RAP K270E; not shown: N-terminal hexahistidine and S-peptide tags of pET30(+)a
T2 sequence (looked up): T1 sequence (looked up) with T13S, K17E, Y49H, K51E, A56K
Nature of the assay: solid-phase binding assay: LRP2 CR89 coated on the plate, d3 ligand in solution, anti-RAP detection, absorbance. The protocol: (§1) Solid phase binding assays—Purified, refolded CR protein (1 μg) was bound to Nunc Maxisorp™ 96-well plates in TBS pH 8 supplemented with 5 mM CaCl₂ (TBSC) overnight at 4° C. Wells were washed with TBSC and then blocked with TBSC containing 2% bovine serum albumin (BSA). RAP ligands were then incubated with the immobilized receptor at a range of concentrations for 2 hours in the above blocking buffer supplemented with 0.05% Tween-20 at room temperature. Control wells contained no added ligand. As an additional control, to determine whether the absence of calcium affected binding, 10 mM EGTA was included in the incubation medium for some samples. Wells were washed with TBSTC and bound ligands detected with polyclonal anti-RAP (BP41/42, 1:1,000, BioMarin). Excess primary antibody was removed and wells washed before incubation with the secondary antibody, HRP-conjugated goat anti rabbit IgG (Bio-Rad). After washing, TMB substrate solutions (Bio-Rad) were added to detect HRP. Color development was stopped with 1N HCl. Absorption at 450 nm was measured with a microplate spectrophotometer (Molecular Devices). Data were plotted and Kd values derived by non-linear regression with the assumption of single-site binding (GraphPad Prism).
(§2) Next, the binding of RAP d3 and MegaRAP1 d3 proteins to LRP1 CR3-5 and LRP2 CR89 was assessed. […] In all cases, 10 mM EGTA prevented binding of both RAP d3 and MegaRAP1 d3 to CR proteins. Since calcium was the only divalent metal ion present in the binding buffer, this observation is consistent with both RAP d3 and MegaRAP1 d3 binding to calcium-loaded CR pairs. […] Therefore, wild-type RAP d3 and MegaRAP1 d3 have inverted binding preferences for these two receptor fragments.

Assay [3] concerns the target T3, RAP d3 E217K (human, UniProt P30533 235-353).
T3 construct: range 201-319 (mature RAP numbering); Forward mutant of m1; same construct; also called RAP E217K; not shown: N-terminal hexahistidine and S-peptide tags of pET30(+)a
T3 sequence (looked up): T1 sequence (looked up) with T13S, Y49H, K51E, A56K, E70K
The description is as above. The protocol:
as §1, §2

Assay [4] has as its target T4, RAP d3 E251K, K270E (human, UniProt P30533 235-353).
T4 construct: range 201-319 (mature RAP numbering); Forward mutant of m1; same construct; also called RAP E251K, K270E; not shown: N-terminal hexahistidine and S-peptide tags of pET30(+)a
T4 sequence (looked up): T1 sequence (looked up) with T13S, K17E, Y49H, A56K
Described as above. As for the experimental part:
as §1, §2

Assay [5] deals with T5, RAP d3 E251K (human, UniProt P30533 235-353).
T5 construct: range 201-319 (mature RAP numbering); Forward mutant of m1; same construct; also called RAP E251K; not shown: N-terminal hexahistidine and S-peptide tags of pET30(+)a
T5 sequence (looked up): T1 sequence (looked up) with T13S, K17E, Y49H, A56K, E70K
Described as above. The protocol:
as §1, §2

Where a chain is given by its changes, count along the chain named.

B1: LRP2 CR89 (receptor)
chain: not shown
notes: domain: CR89; Limits of the fragment are set only by the primers LRP2CR8F and LRP2CR9R; also called YVWR; L2 CR89; not shown: N-terminal hexahistidine and S-peptide tags of pET30(+)a
As a reminder, the Kd is the concentration at which binding is half-saturated. In the case of B1, the Kd in assay [1] is 33 nM. For the same molecule, the binding result in assay [2], in assay [3], in assay [4] and in assay [5] was “no binding (tested: 100 nM)” each time.

Source of the values: patent publication US20090281024A1 (RAPTOR PHARMACEUTICALS, published 2009).
